We go through one molecule from patent US20120329067A1.

In experiment [1] the target is ZFN with wild-type FokI cleavage domain carrying R487D (DD architecture). Nature of the experiment: cell-based or functional assay.
The target in experiment [2] is ZFN with wild-type FokI cleavage domain carrying the DAMQS interface (DS architecture). As to the kind of experiment: cell-based or functional assay.

B1: ZFN with wild-type FokI cleavage domain carrying D483R (RR architecture) (enzyme, part only; not given: zinc finger domain and linker, part only)
chain, part: QLVKSELEEKKSELRHKLKYVPHEYIELIEIARNSTQDRILEMKVMEFFMKVYGYRGKHLGGSRKPDGAIYTVGSPIDYGVIVDTKAYSGGYNLPIGQAREMQRYVEENQTRNKHINPNEWWKVYPSSVTEFKFLFVSGHFKGNYKAQLTRLNHITNCNGAVLSVEELLIGGEMIKAGTLTLEEVRRKFNNGEINF
As for B1, the stimulation of mutagenesis in an EGFP reporter cell line (P3/E4 cleavage site), relative to wt (fraction of wt activity) came out at 0.167 in experiment [1] and 0.33 in experiment [2].
